# B1: F1*; the commonest letter at each place (parent)
# chain: GAGACCGCAACTGAAAAGTTGTTATCACTTGTCGTAAGACACTTTGGATGGGTTGAAGTTCTGCACGTAGAAGCAAAAGGC
# Variants of: B1
# Assay: fraction ligated after 30 min (ligated reads / total reads); higher = more ligase activity
# Conditions: with F1*sub RNA substrate (template-directed ligation), 42 °C
# Method in brief: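 Oligo-pool templates of ligase ribozyme variants were PCR-amplified, T7-transcribed and gel-purified. Ligated and unligated bands were gel-separated, reverse transcribed with barcoded primers, and MiSeq-sequenced; core bases were filtered at quality ≥20. Fraction ligated per variant was ligated reads over total reads.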
row,Variant,fraction ligated
1,T29G T35A,0.83
2,T29G T35C,0.803
3,T29G T35G,0.813
4,T29G T43A,0.826
5,T29G T43C,0.817
6,T29G T43G,0.777
7,T29G T44A,0.848
8,T29G T44C,0.795
9,T29G T44G,0.791
10,T29G T45A,0.673
11,T29G T45C,0.677
12,T29G T45G,0.267
13,T29G T49A,0.753
14,T29G T49C,0.733
15,T29G T49G,0.77
16,T30A,0.855
17,T30A A36C,0.854
18,T30A A36G,0.832
19,T30A A36T,0.823
20,T30A A37C,0.831
21,T30A A37G,0.87
22,T30A A37T,0.832
23,T30A A39C,0.777
24,T30A A39G,0.805

row,Variant,fraction ligated
1,T30A A39T,0.81
2,T30A A41C,0.797
3,T30A A41G,0.798
4,T30A A41T,0.859
5,T30A A48C,0.741
6,T30A A48G,0.806
7,T30A A48T,0.671
8,T30A A56C,0.773
9,T30A A56G,0.797
10,T30A A56T,0.81
11,T30A A57C,0.778
12,T30A A57G,0.837
13,T30A A57T,0.8
14,T30A C33A,0.847
15,T30A C33G,0.84
16,T30A C33T,0.849
17,T30A C40A,0.845
18,T30A C40G,0.803
19,T30A C40T,0.825
20,T30A C42A,0.815
21,T30A C42G,0.847
22,T30A C42T,0.852
23,T30A G31A,0.842
24,T30A G31C,0.784

row,Variant,fraction ligated
1,T30A G31T,0.831
2,T30A G34A,0.833
3,T30A G34C,0.781
4,T30A G34T,0.802
5,T30A G38A,0.813
6,T30A G38C,0.795
7,T30A G38T,0.832
8,T30A G46A,0.809
9,T30A G46C,0.795
10,T30A G46T,0.805
11,T30A G47A,0.793
12,T30A G47C,0.128
13,T30A G47T,0.373
14,T30A G50A,0.22
15,T30A G50C,0.111
16,T30A G50T,0.57
17,T30A G55A,0.816
18,T30A G55C,0.741
19,T30A G55T,0.818
20,T30A T32A,0.843
21,T30A T32C,0.768
22,T30A T32G,0.842
23,T30A T35A,0.839
24,T30A T35C,0.816

row,Variant,fraction ligated
1,T30A T35G,0.827
2,T30A T43A,0.828
3,T30A T43C,0.794
4,T30A T43G,0.8
5,T30A T44A,0.855
6,T30A T44C,0.828
7,T30A T44G,0.825
8,T30A T45A,0.604
9,T30A T45C,0.746
10,T30A T45G,0.211
11,T30A T49A,0.694
12,T30A T49C,0.467
13,T30A T49G,0.754
14,T30C,0.807
15,T30C A36C,0.801
16,T30C A36G,0.823
17,T30C A36T,0.816
18,T30C A37C,0.794
19,T30C A37G,0.83
20,T30C A37T,0.805
21,T30C A39C,0.765
22,T30C A39G,0.782
23,T30C A39T,0.764
24,T30C A41C,0.752

row,Variant,fraction ligated
1,T30C A41G,0.828
2,T30C A41T,0.805
3,T30C A48C,0.757
4,T30C A48G,0.329
5,T30C A48T,0.346
6,T30C A56C,0.763
7,T30C A56G,0.764
8,T30C A56T,0.749
9,T30C A57C,0.777
10,T30C A57G,0.818
11,T30C A57T,0.769
12,T30C C33A,0.824
13,T30C C33G,0.837
14,T30C C33T,0.84
15,T30C C40A,0.828
16,T30C C40G,0.828
17,T30C C40T,0.808
18,T30C C42A,0.817
19,T30C C42G,0.817
20,T30C C42T,0.794
21,T30C G31A,0.779
22,T30C G31C,0.789
23,T30C G31C T32C A39G C40G A41G,0.867
24,T30C G31C T32C C33G G38C A39G C40G A41G,0.892

row,Variant,fraction ligated
1,T30C G31C T32G A39C C40G A41G,0.862
2,T30C G31C T32G C33G G38C A39C C40G A41G,0.839
3,T30C G31T,0.823
4,T30C G34A,0.792
5,T30C G34C,0.746
6,T30C G34T,0.787
7,T30C G38A,0.797
8,T30C G38C,0.78
9,T30C G38T,0.795
10,T30C G46A,0.807
11,T30C G46C,0.759
12,T30C G46T,0.78
13,T30C G47A,0.798
14,T30C G47C,0.0928
15,T30C G47T,0.358
16,T30C G50A,0.175
17,T30C G50C,0.107
18,T30C G50T,0.452
19,T30C G55A,0.81
20,T30C G55C,0.504
21,T30C G55T,0.757
22,T30C T32A,0.817
23,T30C T32C,0.726
24,T30C T32C A39G A41G,0.816

row,Variant,fraction ligated
1,T30C T32C C33G G38C A39G A41G,0.816
2,T30C T32G,0.809
3,T30C T32G A39C A41G,0.852
4,T30C T32G C33G G38C A39C A41G,0.831
5,T30C T35A,0.796
6,T30C T35C,0.824
7,T30C T35G,0.795
8,T30C T43A,0.809
9,T30C T43C,0.788
10,T30C T43G,0.768
11,T30C T44A,0.807
12,T30C T44C,0.803
13,T30C T44G,0.812
14,T30C T45A,0.668
15,T30C T45C,0.475
16,T30C T45G,0.174
17,T30C T49A,0.575
18,T30C T49C,0.0166
19,T30C T49G,0.485
20,T30G,0.843
21,T30G A36C,0.833
22,T30G A36G,0.872
23,T30G A36T,0.841
